Columns and labels:
[1] = target: filamentous actin (F-actin) from rabbit skeletal muscle (rabbit, UniProt P68135 1-377); experiment: co-sedimentation
SEC + other: NMR = target: the molecule itself; experiment: SEC + other: NMR

| co-sedimentation pellet (% of WT) [1] | Binder | stoichiometry N (SEC + other: NMR) |
| --- | --- | --- |
| 100 ± 3 % of WT | talin 2300–2541 (C-terminal actin-binding domain, wild type) (domain or fragment, mouse, UniProt P26039 2300-2541, looked up) DPTVIAENELLGAAAAIEAAAKKLEQLKPRAKPKEADESLNFEEQILEAAKSIAAATSALVKAASAAQRELVAQGKVGAIPANALDDGQWSQGLISAARMVAAATNNLCEAANAAVQGHASQEKLISSAKQVAASTAQLLVACKVKADQDSEAMKRLQAAGNAVKRASDNLVKAAQKAAAFEDQENETVVVKEKMVGGIAQIIAAQEEMLRKERELEEARKKLAQIRQQQYKFLPSELRDEH | 2 |
| 144 ± 8 % of WT | talin 2300–2541 D2447N (domain or fragment, mouse, UniProt P26039 2300-2541, looked up) DPTVIAENELLGAAAAIEAAAKKLEQLKPRAKPKEADESLNFEEQILEAAKSIAAATSALVKAASAAQRELVAQGKVGAIPANALDDGQWSQGLISAARMVAAATNNLCEAANAAVQGHASQEKLISSAKQVAASTAQLLVACKVKANQDSEAMKRLQAAGNAVKRASDNLVKAAQKAAAFEDQENETVVVKEKMVGGIAQIIAAQEEMLRKERELEEARKKLAQIRQQQYKFLPSELRDEH | 2 |
| 37 ± 9 % of WT | talin 2300–2541 R2526A (domain or fragment) DPTVIAENELLGAAAAIEAAAKKLEQLKPRAKPKEADESLNFEEQILEAAKSIAAATSALVKAASAAQRELVAQGKVGAIPANALDDGQWSQGLISAARMVAAATNNLCEAANAAVQGHASQEKLISSAKQVAASTAQLLVACKVKADQDSEAMKRLQAAGNAVKRASDNLVKAAQKAAAFEDQENETVVVKEKMVGGIAQIIAAQEEMLRKERELEEARKKLAQIAQQQYKFLPSELRDEH | – |
| 135 ± 13 % of WT | talin 2300–2541 I2316A/L2323A (domain or fragment, mouse, UniProt P26039 2300-2541, looked up) DPTVIAENELLGAAAAAEAAAKKAEQLKPRAKPKEADESLNFEEQILEAAKSIAAATSALVKAASAAQRELVAQGKVGAIPANALDDGQWSQGLISAARMVAAATNNLCEAANAAVQGHASQEKLISSAKQVAASTAQLLVACKVKADQDSEAMKRLQAAGNAVKRASDNLVKAAQKAAAFEDQENETVVVKEKMVGGIAQIIAAQEEMLRKERELEEARKKLAQIRQQQYKFLPSELRDEH | 2 |
| 127 ± 3 % of WT | talin 2300–2541 L2323A (domain or fragment, mouse, UniProt P26039 2300-2541, looked up) DPTVIAENELLGAAAAIEAAAKKAEQLKPRAKPKEADESLNFEEQILEAAKSIAAATSALVKAASAAQRELVAQGKVGAIPANALDDGQWSQGLISAARMVAAATNNLCEAANAAVQGHASQEKLISSAKQVAASTAQLLVACKVKADQDSEAMKRLQAAGNAVKRASDNLVKAAQKAAAFEDQENETVVVKEKMVGGIAQIIAAQEEMLRKERELEEARKKLAQIRQQQYKFLPSELRDEH | 2 |
| 96 ± 9 % of WT | talin 2300–2541 I2316A (domain or fragment, mouse, UniProt P26039 2300-2541, looked up) DPTVIAENELLGAAAAAEAAAKKLEQLKPRAKPKEADESLNFEEQILEAAKSIAAATSALVKAASAAQRELVAQGKVGAIPANALDDGQWSQGLISAARMVAAATNNLCEAANAAVQGHASQEKLISSAKQVAASTAQLLVACKVKADQDSEAMKRLQAAGNAVKRASDNLVKAAQKAAAFEDQENETVVVKEKMVGGIAQIIAAQEEMLRKERELEEARKKLAQIRQQQYKFLPSELRDEH | 2 |
| 43 ± 5 % of WT | talin 2300–2541 K2443D (domain or fragment, mouse, UniProt P26039 2300-2541, looked up) DPTVIAENELLGAAAAIEAAAKKLEQLKPRAKPKEADESLNFEEQILEAAKSIAAATSALVKAASAAQRELVAQGKVGAIPANALDDGQWSQGLISAARMVAAATNNLCEAANAAVQGHASQEKLISSAKQVAASTAQLLVACDVKADQDSEAMKRLQAAGNAVKRASDNLVKAAQKAAAFEDQENETVVVKEKMVGGIAQIIAAQEEMLRKERELEEARKKLAQIRQQQYKFLPSELRDEH | 2 |
| 43 ± 10 % of WT | talin 2300–2541 A2518D (domain or fragment) DPTVIAENELLGAAAAIEAAAKKLEQLKPRAKPKEADESLNFEEQILEAAKSIAAATSALVKAASAAQRELVAQGKVGAIPANALDDGQWSQGLISAARMVAAATNNLCEAANAAVQGHASQEKLISSAKQVAASTAQLLVACKVKADQDSEAMKRLQAAGNAVKRASDNLVKAAQKAAAFEDQENETVVVKEKMVGGIAQIIAAQEEMLRKERELEEDRKKLAQIRQQQYKFLPSELRDEH | – |
| 42 ± 7 % of WT | talin 2300–2541 L2515D/A2518D (domain or fragment) DPTVIAENELLGAAAAIEAAAKKLEQLKPRAKPKEADESLNFEEQILEAAKSIAAATSALVKAASAAQRELVAQGKVGAIPANALDDGQWSQGLISAARMVAAATNNLCEAANAAVQGHASQEKLISSAKQVAASTAQLLVACKVKADQDSEAMKRLQAAGNAVKRASDNLVKAAQKAAAFEDQENETVVVKEKMVGGIAQIIAAQEEMLRKEREDEEDRKKLAQIRQQQYKFLPSELRDEH | – |
| 138 ± 16 % of WT | talin 2300–2541 D2385K/D2386N/D2447N (domain or fragment, mouse, UniProt P26039 2300-2541, looked up) DPTVIAENELLGAAAAIEAAAKKLEQLKPRAKPKEADESLNFEEQILEAAKSIAAATSALVKAASAAQRELVAQGKVGAIPANALKNGQWSQGLISAARMVAAATNNLCEAANAAVQGHASQEKLISSAKQVAASTAQLLVACKVKANQDSEAMKRLQAAGNAVKRASDNLVKAAQKAAAFEDQENETVVVKEKMVGGIAQIIAAQEEMLRKERELEEARKKLAQIRQQQYKFLPSELRDEH | 2 |
| 113 ± 13 % of WT | talin 2300–2541 D2385K/D2386N (domain or fragment, mouse, UniProt P26039 2300-2541, looked up) DPTVIAENELLGAAAAIEAAAKKLEQLKPRAKPKEADESLNFEEQILEAAKSIAAATSALVKAASAAQRELVAQGKVGAIPANALKNGQWSQGLISAARMVAAATNNLCEAANAAVQGHASQEKLISSAKQVAASTAQLLVACKVKADQDSEAMKRLQAAGNAVKRASDNLVKAAQKAAAFEDQENETVVVKEKMVGGIAQIIAAQEEMLRKERELEEARKKLAQIRQQQYKFLPSELRDEH | 2 |
| 36 ± 6 % of WT | talin 2300–2541 L2515D (domain or fragment) DPTVIAENELLGAAAAIEAAAKKLEQLKPRAKPKEADESLNFEEQILEAAKSIAAATSALVKAASAAQRELVAQGKVGAIPANALDDGQWSQGLISAARMVAAATNNLCEAANAAVQGHASQEKLISSAKQVAASTAQLLVACKVKADQDSEAMKRLQAAGNAVKRASDNLVKAAQKAAAFEDQENETVVVKEKMVGGIAQIIAAQEEMLRKEREDEEARKKLAQIRQQQYKFLPSELRDEH | – |
| 33 ± 5 % of WT | talin 2300–2541 R2526G (domain or fragment) DPTVIAENELLGAAAAIEAAAKKLEQLKPRAKPKEADESLNFEEQILEAAKSIAAATSALVKAASAAQRELVAQGKVGAIPANALDDGQWSQGLISAARMVAAATNNLCEAANAAVQGHASQEKLISSAKQVAASTAQLLVACKVKADQDSEAMKRLQAAGNAVKRASDNLVKAAQKAAAFEDQENETVVVKEKMVGGIAQIIAAQEEMLRKERELEEARKKLAQIGQQQYKFLPSELRDEH | – |
| 154 ± 7 % of WT | talin 2300–2541 L2309A/L2323A (domain or fragment, mouse, UniProt P26039 2300-2541, looked up) DPTVIAENEALGAAAAIEAAAKKAEQLKPRAKPKEADESLNFEEQILEAAKSIAAATSALVKAASAAQRELVAQGKVGAIPANALDDGQWSQGLISAARMVAAATNNLCEAANAAVQGHASQEKLISSAKQVAASTAQLLVACKVKADQDSEAMKRLQAAGNAVKRASDNLVKAAQKAAAFEDQENETVVVKEKMVGGIAQIIAAQEEMLRKERELEEARKKLAQIRQQQYKFLPSELRDEH | 2 |
| 59 ± 5 % of WT | talin 2300–2541 Q2388D (domain or fragment, mouse, UniProt P26039 2300-2541, looked up) DPTVIAENELLGAAAAIEAAAKKLEQLKPRAKPKEADESLNFEEQILEAAKSIAAATSALVKAASAAQRELVAQGKVGAIPANALDDGDWSQGLISAARMVAAATNNLCEAANAAVQGHASQEKLISSAKQVAASTAQLLVACKVKADQDSEAMKRLQAAGNAVKRASDNLVKAAQKAAAFEDQENETVVVKEKMVGGIAQIIAAQEEMLRKERELEEARKKLAQIRQQQYKFLPSELRDEH | 2 |
| 48 ± 10 % of WT | talin 2300–2541 K2445D (domain or fragment, mouse, UniProt P26039 2300-2541, looked up) DPTVIAENELLGAAAAIEAAAKKLEQLKPRAKPKEADESLNFEEQILEAAKSIAAATSALVKAASAAQRELVAQGKVGAIPANALDDGQWSQGLISAARMVAAATNNLCEAANAAVQGHASQEKLISSAKQVAASTAQLLVACKVDADQDSEAMKRLQAAGNAVKRASDNLVKAAQKAAAFEDQENETVVVKEKMVGGIAQIIAAQEEMLRKERELEEARKKLAQIRQQQYKFLPSELRDEH | 2 |
| 113 ± 3 % of WT | talin 2300–2541 L2309A (domain or fragment, mouse, UniProt P26039 2300-2541, looked up) DPTVIAENEALGAAAAIEAAAKKLEQLKPRAKPKEADESLNFEEQILEAAKSIAAATSALVKAASAAQRELVAQGKVGAIPANALDDGQWSQGLISAARMVAAATNNLCEAANAAVQGHASQEKLISSAKQVAASTAQLLVACKVKADQDSEAMKRLQAAGNAVKRASDNLVKAAQKAAAFEDQENETVVVKEKMVGGIAQIIAAQEEMLRKERELEEARKKLAQIRQQQYKFLPSELRDEH | 2 |
| 37 ± 3 % of WT | talin 2300–2541 R2519A (domain or fragment) DPTVIAENELLGAAAAIEAAAKKLEQLKPRAKPKEADESLNFEEQILEAAKSIAAATSALVKAASAAQRELVAQGKVGAIPANALDDGQWSQGLISAARMVAAATNNLCEAANAAVQGHASQEKLISSAKQVAASTAQLLVACKVKADQDSEAMKRLQAAGNAVKRASDNLVKAAQKAAAFEDQENETVVVKEKMVGGIAQIIAAQEEMLRKERELEEAAKKLAQIRQQQYKFLPSELRDEH | – |
| 27 ± 6 % of WT | talin 2300–2541 K2443D/V2444D/K2445D (domain or fragment, mouse, UniProt P26039 2300-2541, looked up) DPTVIAENELLGAAAAIEAAAKKLEQLKPRAKPKEADESLNFEEQILEAAKSIAAATSALVKAASAAQRELVAQGKVGAIPANALDDGQWSQGLISAARMVAAATNNLCEAANAAVQGHASQEKLISSAKQVAASTAQLLVACDDDADQDSEAMKRLQAAGNAVKRASDNLVKAAQKAAAFEDQENETVVVKEKMVGGIAQIIAAQEEMLRKERELEEARKKLAQIRQQQYKFLPSELRDEH | 2 |
